Numbering of substitutions follows the chain as printed. In names and notes the source's numbering stands.
Tested on: engineered chimeric receptor SEQ ID NO: 33 and its mutants (human α7-nAChR ligand binding domain / human GlyRα1 ion pore domain) in Lenti-X 293T cells
Assay: YFP fluorescence quenching anion reporter plate reader assay (percent quench, EC50)
Assay type: cell-based
Conditions: for YFP fluorescence quenching using CNL001 (percent quench): receptor named in row; for YFP fluorescence quenching using Facinicline, 30 nM fac: ligand Facinicline 30 nM; for YFP fluorescence quenching using Facinicline, 300 nM fac: ligand Facinicline 300 nM; for YFP fluorescence quenching using Facinicline, 10 uM fac: ligand Facinicline 10 uM; for YFP fluorescence quenching using Facinicline, 30 uM fac: ligand Facinicline 30 uM; for YFP fluorescence quenching using TC-6987, 1 uM tc6987: ligand TC-6987 1 uM; for YFP fluorescence quenching using TC-6987, 10 uM tc6987: ligand TC-6987 10 uM; for YFP fluorescence quenching using TC-6987, 500 uM tc6987: ligand TC-6987 500 uM; for YFP fluorescence quenching using Varenicline, 3 nM var: ligand Varenicline 3 nM; for YFP fluorescence quenching using Varenicline, 30 nM var: ligand Varenicline 30 nM; for YFP fluorescence quenching using Varenicline, 300 nM var: ligand Varenicline 300 nM; for YFP fluorescence quenching using Varenicline, 500 nM var: ligand Varenicline 500 nM; for YFP fluorescence quenching using Varenicline, 1 uM var: ligand Varenicline 1 uM
Excerpt: To screen these mutant LGICs for those having novel response profiles to ligands, an anion reporter assay was developed to assess the function of the LGICs in a high throughput format. In this assay, cells expressing a YFP reporter whose fluorescence is quenched in the presence of anion are transfected with DNA encoding the channel of interest. Upon exposure to ligand, channels that are activated will flux anion, resulting in a dose-dependent quench of the YFP that can be detected on a plate reader. The greater the quench signal (i.e., the more positive the value), the higher the ligand activity on the receptor is.
Lenti-X 293T cells (LX293T, Clontech) were maintained in DMEM containing 10% FBS and 1% penicillin/streptomycin (Invitrogen). […] Two days before assay, cells were split at a density of 20,000 cells/well in a 96-well tissue culture plate coated with poly-d lysine (Thermo Scientific). The next day, the cells were transiently transfected with 0.1 μg of DNA per well using standard Fugene protocol (Promega). On the day of assay, cells were washed 2 times in 1X extracellular solution (1X ECS: 140 mM NaCl, 5 mM KCl, 1 mM MgCl2, 2 mM CaCl2, 10 mM HEPES, 10 mM glucose, pH 7.2, mOsms 300). After the last wash, 100 μL of 1X ECS was added to the wells and the plate was incubated at 37° C. for 30 min. While incubating the plate, the drugs were diluted to a 2X concentration in 1X ECS-Nal (same components as 1X ECS except the 140 mM NaCl was replaced by 140 mM Nal). The plates were then read on a Flexstation3 (Molecular Devices). Each well, 8 wells at a time, of the plate is read for 2 min using a Flexstation3 (Molecular Devices) as follows: 1) a baseline YFP fluorescence is read for 17 sec, 2) 100 μL of ligand is added, and 3) the changes in YFP fluorescence are then measured every 1.3 sec for 1 minute and 43 seconds. The percent quench is calculated from the average fluorescence of the last 10 seconds of the read divided by the baseline average of the first 15 seconds prior to the ligand addition.
FIGS. 1A-1J provide heat maps of the percent quench of YFP fluorescence following stimulation by various doses of either acetylcholine or the non-native ligand as indicated in the Figures. CODA71 (SEQ ID NO: 33) was used as a control, and CODA75 (SEQ ID NO: 29, a non-responding chimeric engineered receptor) was used as the negative control. Quenching of the fluorescence signal, as indicated by blue shaded cells, indicate the level of engineered receptor activation by the non-native ligand at that concentration.

[1] = 1 nM CNL001, first column so headed
[2] = 1 nM CNL001, second column so headed
[3] = 1 nM brd (TC-5619/Bradanicline)
[4] = 3 nM brd (TC-5619/Bradanicline)
[5] = 10 nM CNL001, first column so headed
[6] = 10 nM CNL001, second column so headed
[7] = 10 nM brd (TC-5619/Bradanicline)
[8] = 30 nM brd (TC-5619/Bradanicline)
[9] = 50 nM CNL001, first column so headed
[10] = 50 nM CNL001, second column so headed
[11] = 100 nM CNL001, first column so headed
[12] = 100 nM CNL001, second column so headed
[13] = 100 nM brd (TC-5619/Bradanicline)
[14] = 300 nM brd (TC-5619/Bradanicline)
[15] = 1 uM CNL001, first column so headed
[16] = 1 uM CNL001, second column so headed
[17] = 1 uM brd (TC-5619/Bradanicline)

B1: CODA282: engineered receptor: Y115D in SEQ ID NO: 33 (protein)
chain: MRCSPGGVWLALAASLLHVSLQGEFQRKLYKELVKNYNPLERPVANDSQPLTVYFSLSLLQIMDVDEKNQVLTTNIWLQMSWTDHYLQWNVSEYPGVKTVRFPDGQIWKPDILLDNSADERFDATFHTNVLVNSSGHCQYLPPGIFKSSCPMDLKNFPMDVQTCKLKFGSWSYGGWSLDLQMQEADISGYIPNGEWDLVGIPGKRSERFYECCKEPYPDVTFTVTMRRRMGYYLIQMYIPSLLIVILSWISFWINMDAAPARVGLGITTVLTMTTQSSGSRASLPKVSYVKAIDIWMAVCLLFVFSALLEYAAVNFVSRQHKELLRFRRKRRHHKSPMLNLFQEDEAGEGRFNFSAYGMGPACLQAKDGISVKGANNSNTTNPPPAPSKSPEEMRKLFIQRAKKIDKISRIGFPMAFLIFNMFYWIIYKIVRREDVHNQ
modifications: synthetic sequence of chimeric LGIC
YFP fluorescence quenching using CNL001 (percent quench) [1]: −15.837% | YFP fluorescence quenching using CNL001 (percent quench) [2]: −6.519% | YFP fluorescence quenching using TC-5619/Bradanicline (percent quench) [3]: −0.54% | YFP fluorescence quenching using TC-5619/Bradanicline (percent quench) [4]: −7.22% | YFP fluorescence quenching using CNL001 (percent quench) [5]: −4.862% | YFP fluorescence quenching using CNL001 (percent quench) [6]: −8.244% | YFP fluorescence quenching using TC-5619/Bradanicline (percent quench) [7]: −2.82% | YFP fluorescence quenching using TC-6683 (percent quench) (30 nM TC-6683): 0.365% | YFP fluorescence quenching using TC-5619/Bradanicline (percent quench) [8]: −16.67% | YFP fluorescence quenching using CNL001 (percent quench) [9]: −3.807% | YFP fluorescence quenching using CNL001 (percent quench) [10]: −2.871% | YFP fluorescence quenching using ABT-126 (percent quench) (50 nM abt (ABT-126)): −21.22% | YFP fluorescence quenching using CNL001 (percent quench) [11]: −7.924% | YFP fluorescence quenching using CNL001 (percent quench) [12]: 2.11% | YFP fluorescence quenching (percent quench) (100 nM CNL002): −9.7% | YFP fluorescence quenching using ABT-126 (percent quench) (100 nM abt (ABT-126)): −19.7% | YFP fluorescence quenching using AZD-0328 (percent quench) (100 nM azd0328): 3.19% | YFP fluorescence quenching using TC-5619/Bradanicline (percent quench) [13]: −0.02% | YFP fluorescence quenching using TC-6683 (percent quench) (300 nM TC-6683): −6.865% | YFP fluorescence quenching using ABT-126 (percent quench) (300 nM abt (ABT-126)): −15.55% | YFP fluorescence quenching using AZD-0328 (percent quench) (300 nM azd0328): 4.79% | YFP fluorescence quenching using TC-5619/Bradanicline (percent quench) [14]: −12.37% | YFP fluorescence quenching using CNL001 (percent quench) [15]: 11.047% | YFP fluorescence quenching using CNL001 (percent quench) [16]: 8.04% | YFP fluorescence quenching (percent quench) (1 uM CNL002): −8.37% | YFP fluorescence quenching using ABT-126 (percent quench) (1 uM abt (ABT-126)): −14.31% | YFP fluorescence quenching using TC-5619/Bradanicline (percent quench) [17]: 31.23% | YFP fluorescence quenching using TC-6683 (percent quench) (3 uM TC-6683): −4.927% | YFP fluorescence quenching (percent quench) (10 uM ach (acetylcholine)): 6.81% | YFP fluorescence quenching (percent quench) (30 uM CNL002): 3.4% | YFP fluorescence quenching using TC-6683 (percent quench) (30 uM TC-6683): −11.259% | YFP fluorescence quenching using AZD-0328 (percent quench) (30 uM azd0328): 76.78% | YFP fluorescence quenching using TC-6683 (percent quench) (100 uM TC-6683): −11.894% | YFP fluorescence quenching (percent quench) (100 uM ach (acetylcholine)): 1.19% | YFP fluorescence quenching (percent quench) (1 mM ach (acetylcholine)): −14.05% | YFP fluorescence quenching (percent quench) (3 mM ach (acetylcholine)): 2.37% | YFP fluorescence quenching using Facinicline, 30 nM fac: 10.17 | YFP fluorescence quenching using Facinicline, 100 nM fac (ligand Facinicline 100 nM): 24.77 | YFP fluorescence quenching using Facinicline, 300 nM fac: 51.04 | YFP fluorescence quenching using Facinicline, 10 uM fac: 79.76 | YFP fluorescence quenching using Facinicline, 30 uM fac: 81.7 | YFP fluorescence quenching using TC-6987, 1 uM tc6987: 13.01 | YFP fluorescence quenching using TC-6987, 10 uM tc6987: 14.73 | YFP fluorescence quenching using TC-6987, 500 uM tc6987: 14.29 | YFP fluorescence quenching using Varenicline, 3 nM var (first column): 2.111 | YFP fluorescence quenching using Varenicline, 3 nM var (second column): −12.265 | YFP fluorescence quenching using Varenicline, 30 nM var (first column): −4.433 | YFP fluorescence quenching using Varenicline, 30 nM var (second column): −6.153 | YFP fluorescence quenching using Varenicline, 300 nM var (first column): −0.861 | YFP fluorescence quenching using Varenicline, 300 nM var (second column): −1.308 | YFP fluorescence quenching using Varenicline, 500 nM var (first column): 0.733 | YFP fluorescence quenching using Varenicline, 500 nM var (second column): −4.633 | YFP fluorescence quenching using Varenicline, 1 uM var (first column): −4.512 | YFP fluorescence quenching using Varenicline, 1 uM var (second column): 0.02

B2: CODA283: engineered receptor: Y115E_N379K in SEQ ID NO: 33 (protein)
chain: B1 chain with D115E, N379K
modifications: synthetic sequence of chimeric LGIC
YFP fluorescence quenching using CNL001 (percent quench) [1]: −0.713% | YFP fluorescence quenching using CNL001 (percent quench) [2]: −0.621% | YFP fluorescence quenching using TC-5619/Bradanicline (percent quench) [3]: 0.59% | YFP fluorescence quenching using TC-5619/Bradanicline (percent quench) [4]: −6.41% | YFP fluorescence quenching using CNL001 (percent quench) [5]: 7.739% | YFP fluorescence quenching using CNL001 (percent quench) [6]: 15.277% | YFP fluorescence quenching using TC-5619/Bradanicline (percent quench) [7]: −1.58% | YFP fluorescence quenching using TC-5619/Bradanicline (percent quench) [8]: −14.24% | YFP fluorescence quenching using CNL001 (percent quench) [9]: 19.489% | YFP fluorescence quenching using CNL001 (percent quench) [10]: 33.703% | YFP fluorescence quenching using ABT-126 (percent quench) (50 nM abt (ABT-126)): −22.65% | YFP fluorescence quenching using CNL001 (percent quench) [11]: 56.886% | YFP fluorescence quenching using CNL001 (percent quench) [12]: 60.171% | YFP fluorescence quenching (percent quench) (100 nM CNL002): −5.81% | YFP fluorescence quenching using ABT-126 (percent quench) (100 nM abt (ABT-126)): −20.55% | YFP fluorescence quenching using AZD-0328 (percent quench) (100 nM azd0328): −2.1% | YFP fluorescence quenching using TC-5619/Bradanicline (percent quench) [13]: 33.36% | YFP fluorescence quenching using ABT-126 (percent quench) (300 nM abt (ABT-126)): −12.93% | YFP fluorescence quenching using AZD-0328 (percent quench) (300 nM azd0328): 38.2% | YFP fluorescence quenching using TC-5619/Bradanicline (percent quench) [14]: 43.81% | YFP fluorescence quenching using CNL001 (percent quench) [15]: 69.836% | YFP fluorescence quenching using CNL001 (percent quench) [16]: 73.855% | YFP fluorescence quenching (percent quench) (1 uM CNL002): 9.69% | YFP fluorescence quenching using ABT-126 (percent quench) (1 uM abt (ABT-126)): 1.71% | YFP fluorescence quenching using TC-5619/Bradanicline (percent quench) [17]: 75.39% | YFP fluorescence quenching (percent quench) (10 uM ach (acetylcholine)): −6.16% | YFP fluorescence quenching (percent quench) (30 uM CNL002): −12.85% | YFP fluorescence quenching using AZD-0328 (percent quench) (30 uM azd0328): 79.44% | YFP fluorescence quenching (percent quench) (100 uM ach (acetylcholine)): −11.12% | YFP fluorescence quenching (percent quench) (1 mM ach (acetylcholine)): −2.74% | YFP fluorescence quenching (percent quench) (3 mM ach (acetylcholine)): 53.61% | YFP fluorescence quenching using Facinicline, 30 nM fac: 6.39 | YFP fluorescence quenching using Facinicline, 300 nM fac: 78.36 | YFP fluorescence quenching using Facinicline, 10 uM fac: 81.93 | YFP fluorescence quenching using Facinicline, 30 uM fac: 78.63 | YFP fluorescence quenching using TC-6987, 1 uM tc6987: −9.54 | YFP fluorescence quenching using TC-6987, 10 uM tc6987: −7.06 | YFP fluorescence quenching using TC-6987, 500 uM tc6987: −15.15

From US20250152742A1, “COMPOSITIONS AND METHODS FOR NEUROLOGICAL DISEASES” (Trames Bio, Inc., priority 2022, published 2025)
